Assay results: patent publication US20180250415A1 (Scripps Research, published 2018)

B1: h38C2 IgG1 (antibody, V domains shown)
VH: EVQLVESGGGLVQPGGSLRLSCAASGFTFSNYWMSWVRQSPEKGLEWVSEIRLRSDNYATHYAESVKGRFTISRDNSKNTLYLQMNSLRAEDTGIYYCKTYFYSFSYWGQGTLVTVSS
VL: ELQMTQSPSSLSASVGDRVTITCRSSQSLLHTYGSPYLNWYLQKPGQSPKLLIYKVSNRFSGVPSRFSGSGSGTDFTLTISSLQPEDFAVYFCSQGTHLPYTFGGGTKVEIK
notes: also called parent h38C2 IgG1; unconjugated humanized 38C2 antibody
B2: CD138-h38C2-DVD1 immunoglobulin (antibody, human IgG1, kappa)
light: DIQMTQSTSSLSASLGDRVTISCSASQGINNYLNWYQQKPDGTVELLIYYTSTLQSGVPSRFSGSGSGTDYSLTISNLEPEDIGTYYCQQYSKLPRTFGGGTKLEIKASTKGPELQMTQSPSSLSASVGDRVTITCRSSQSLLHTYGSPYLNWYLQKPGQSPKLLIYKVSNRFSGVPSRFSGSGSGTDFTLTISSLQPEDFAVYFCSQGTHLPYTFGGGTKVEIKRTVAAPSVFIFPPSDEQLKSGTASVVCLLNNFYPREAKVQWKVDNALQSGNSQESVTEQDSKDSTYSLSSTLTLSKADYEKHKVYACEVTHQGLSSPVTKSFNRGEC
heavy: not shown
notes: also called CD138 DVD; anti-CD138 DVD1

How the values were obtained:
[1] = molecular target: T1, CD79b (UniProt P40259 29-229, limits assumed); assay: flow cytometry on Ramos (CD79b+) cells, detected with 647-conjugated F(ab')2 donkey anti-human Fc [CONT.]
T1 construct: whole, on cells; also called CD79b on Ramos cells
T1 sequence (looked up): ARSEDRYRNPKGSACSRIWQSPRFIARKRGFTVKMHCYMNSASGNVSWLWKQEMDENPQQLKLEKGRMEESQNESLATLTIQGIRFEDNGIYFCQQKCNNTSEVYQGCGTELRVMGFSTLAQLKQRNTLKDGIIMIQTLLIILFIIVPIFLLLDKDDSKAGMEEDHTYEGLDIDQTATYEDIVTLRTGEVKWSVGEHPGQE
Method: (§1) The binding activities of these DVDs are also tested against target expressing cells. […] The cells are washed with 200 μL flow cytometry buffer (PBS, 2% (w/v) FBS, pH 7.4), are incubated with DVD1 or DVD2 for 30 min on ice, are washed with 200 μL flow cytometry buffer, and are stained with 647 conjugated polyclonal (Fab′)₂ donkey anti-human Fc (Jackson ImmunoResearch Laboratories) for 20 min on ice. After washing twice with 200 μL ice-cold flow cytometry buffer, the cells are analyzed using a Canto II Flow Cytometer (Becton-Dickinson). Data were analyzed using FlowJo software (Tree Star).

[2] = molecular target: T2, CD138 (human, UniProt P18827 23-310); assay: flow cytometry on H929 and U266 (CD138+) cells, detected with 647-conjugated F(ab')2 donkey anti-human Fc [CONT.]
T2 construct: whole, on cells; also called CD138 on H929 and U266 cells
T2 sequence (looked up): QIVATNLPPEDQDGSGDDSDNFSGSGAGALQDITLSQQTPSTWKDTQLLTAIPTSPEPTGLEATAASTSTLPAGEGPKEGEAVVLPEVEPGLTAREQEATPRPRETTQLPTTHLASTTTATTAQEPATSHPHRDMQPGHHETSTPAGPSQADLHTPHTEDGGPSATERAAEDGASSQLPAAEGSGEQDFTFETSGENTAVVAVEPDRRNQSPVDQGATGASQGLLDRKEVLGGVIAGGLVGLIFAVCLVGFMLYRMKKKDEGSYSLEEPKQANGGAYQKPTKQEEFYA
Method: as §1

[3] = molecular target: T3, HER2 (human, UniProt P04626 23-1255); assay: flow cytometry on SK-BR-3 (SKBR3, HER2+) cells, detected with 647-conjugated F(ab')2 donkey anti-human Fc
T3 construct: whole, on cells; also called ERBB2; HER2 on SK-BR-3 (SKBR3) cells
Method: as §1

Row | Binder | binding result [1] | binding result [2] | binding result [3]
1 | B1 | no binding | no binding | no binding
2 | B2 |  | binds | 
